Measurements taken from US20120172293A1 (Takeda / Millennium, published 2012).
Non-standard residues stand in square brackets, D forms with d. No end group written: not given here. *: point of attachment. Phe(4-NH2) = Nc1ccc(C[C@H](N)C(=O)O)cc1; Morpholinocarbonyl = O=C(N1CCOCC1)*; Amidino = amidino group, N=C(N)*; hArg = N=C(N)NCCCC[C@H](N)C(=O)O; tBuAla = CC(C)(C)C[C@H](N)C(=O)O; 4Pal = N[C@@H](Cc1ccncc1)C(=O)O; Cha = N[C@@H](CC1CCCCC1)C(=O)O; 4Amb = NCc1ccc(C(=O)O)cc1; Orn = NCCC[C@H](N)C(=O)O; Ac3c = NC1(C(=O)O)CC1; Aib = CC(C)(N)C(=O)O; Carbamoyl = NC(=O)*

T1: human Y2 receptor (human, UniProt P49146 1-381)
T1 sequence (looked up): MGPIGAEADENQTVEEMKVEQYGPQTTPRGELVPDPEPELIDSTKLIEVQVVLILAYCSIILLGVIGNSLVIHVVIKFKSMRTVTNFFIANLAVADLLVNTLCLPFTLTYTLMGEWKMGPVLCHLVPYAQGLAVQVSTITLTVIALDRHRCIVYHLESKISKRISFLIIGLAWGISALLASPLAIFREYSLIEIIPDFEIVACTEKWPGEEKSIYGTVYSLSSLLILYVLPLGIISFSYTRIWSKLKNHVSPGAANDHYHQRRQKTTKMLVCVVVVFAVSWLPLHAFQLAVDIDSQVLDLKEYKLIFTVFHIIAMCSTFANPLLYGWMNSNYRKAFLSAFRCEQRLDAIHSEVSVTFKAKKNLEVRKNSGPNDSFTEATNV


Assays:
human Y2 receptor [1] = target: T1, human Y2 receptor; test: cell-based or functional assay
human Y2 receptor [2] = target: T1, human Y2 receptor; test: RBA: [125I]-PYY displacement, hY2R/CHO membranes
Method: After incubation at room temperature for 60 minutes, the mixture was filtered through the cell harvester FilterMate (PerkinElmer) using UniFilter-96 GF/C treated with polyethylenimine (PEI) solution (20 mM Tris, 0.3% PEI, pH 7.4), and the filter was washed 3 times with a filtering buffer (50 mM Tris, 5 mM MgCl₂, 150 mM NaCl, 0.03% NaN₃, 0.05% CHAPS, pH 7.4). Thereafter, UniFilter-96 GF/C was dried in a mechanical drier for 1 hour, 15 μl of the liquid scintillator MicroScint O (PerkinElmer) was added to each well, and a measurement was taken using TopCount (PerkinElmer). The data obtained were analyzed using Prism to calculate the IC₅₀ value.

Binder	GBA EC50 Ratio (vs PYY(3-36)), [35S]GTPγS (human Y2 receptor [1]) [ratio]	IC50 Ratio (vs PYY(3-36)) (human Y2 receptor [2]) [ratio]
Ac-S[dP]RH[Cha][Cha]NL[Ac3c]TRQR[Cha]-NH2 (SMILES CC(=O)N[C@@H](CO)C(=O)N1CCC[C@@H]1C(=O)N[C@@H](CCCNC(=N)N)C(=O)N[C@@H](Cc1c[nH]cn1)C(=O)N[C@@H](CC1CCCCC1)C(=O)N[C@@H](CC1CCCCC1)C(=O)N[C@@H](CC(N)=O)C(=O)N[C@@H](CC(C)C)C(=O)NC1(C(=O)N[C@H](C(=O)N[C@@H](CCCNC(=N)N)C(=O)N[C@@H](CCC(N)=O)C(=O)N[C@@H](CCCNC(=N)N)C(=O)N[C@@H](CC2CCCCC2)C(N)=O)[C@@H](C)O)CC1, also called compound No. 131) [Ac-[D-Pro24, Cha27,28,36, Acpc31]-PYY(23-36)]	3.6	7
[4Amb]RAYINLITRQR[Phe(4-NH2)]-NH2 (N-terminus assumed; SMILES CC[C@H](C)[C@H](NC(=O)[C@H](Cc1ccc(O)cc1)NC(=O)[C@H](C)NC(=O)[C@H](CCCNC(=N)N)NC(=O)c1ccc(CN)cc1)C(=O)N[C@@H](CC(N)=O)C(=O)N[C@@H](CC(C)C)C(=O)N[C@H](C(=O)N[C@H](C(=O)N[C@@H](CCCNC(=N)N)C(=O)N[C@@H](CCC(N)=O)C(=O)N[C@@H](CCCNC(=N)N)C(=O)N[C@@H](Cc1ccc(N)cc1)C(N)=O)[C@@H](C)O)[C@@H](C)CC, also called compound No. 12) [4-Aminomethylbenzoyl-[Ala26, Ile28,31, Phe(4NH2)36]-PYY(25-36)]	5	12
[4Amb]RAYINLIT[hArg]QRY-NH2 (N-terminus assumed; SMILES CC[C@H](C)[C@H](NC(=O)[C@H](Cc1ccc(O)cc1)NC(=O)[C@H](C)NC(=O)[C@H](CCCNC(=N)N)NC(=O)c1ccc(CN)cc1)C(=O)N[C@@H](CC(N)=O)C(=O)N[C@@H](CC(C)C)C(=O)N[C@H](C(=O)N[C@H](C(=O)N[C@@H](CCCCNC(=N)N)C(=O)N[C@@H](CCC(N)=O)C(=O)N[C@@H](CCCNC(=N)N)C(=O)N[C@@H](Cc1ccc(O)cc1)C(N)=O)[C@@H](C)O)[C@@H](C)CC, also called compound No. 11) [4-Aminomethylbenzoyl-[Ala26, Ile28,31, Har33]-PYY(25-36)]	63	260
Morpholinocarbonyl-E[dP]RH[Cha][Cha]NL[Aib]TRQR[Cha]-NH2 (SMILES CC(C)C[C@H](NC(=O)[C@H](CC(N)=O)NC(=O)[C@H](CC1CCCCC1)NC(=O)[C@H](CC1CCCCC1)NC(=O)[C@H](Cc1c[nH]cn1)NC(=O)[C@H](CCCNC(=N)N)NC(=O)[C@H]1CCCN1C(=O)[C@H](CCC(=O)O)NC(=O)N1CCOCC1)C(=O)NC(C)(C)C(=O)N[C@H](C(=O)N[C@@H](CCCNC(=N)N)C(=O)N[C@@H](CCC(N)=O)C(=O)N[C@@H](CCCNC(=N)N)C(=O)N[C@@H](CC1CCCCC1)C(N)=O)[C@@H](C)O, also called compound No. 174) [Morpholinocarbonyl-[Glu23, D-Pro24, Cha27,28,36, Aib31]-PYY(23-36)]	1	1.9
Carbamoyl-D[dP]RH[Cha][Cha]NL[Aib]TRQR[Cha]-NH2 (SMILES CC(C)C[C@H](NC(=O)[C@H](CC(N)=O)NC(=O)[C@H](CC1CCCCC1)NC(=O)[C@H](CC1CCCCC1)NC(=O)[C@H](Cc1c[nH]cn1)NC(=O)[C@H](CCCNC(=N)N)NC(=O)[C@H]1CCCN1C(=O)[C@H](CC(=O)O)NC(N)=O)C(=O)NC(C)(C)C(=O)N[C@H](C(=O)N[C@@H](CCCNC(=N)N)C(=O)N[C@@H](CCC(N)=O)C(=O)N[C@@H](CCCNC(=N)N)C(=O)N[C@@H](CC1CCCCC1)C(N)=O)[C@@H](C)O, also called compound No. 161; ureido-[Asp23,D-Pro24,Cha27,28,36,Aib31]-PYY(23-36)) [Carbamoyl-[Asp23, D-Pro24, Cha27,28,36, Aib31]-PYY(23-36)]	2.4	4.1
Morpholinocarbonyl-S[dP]RH[Cha][tBuAla]NK[Aib]TRQR[Cha]-NH2 (SMILES C[C@@H](O)[C@H](NC(=O)C(C)(C)NC(=O)[C@H](CCCCN)NC(=O)[C@H](CC(N)=O)NC(=O)[C@H](CC(C)(C)C)NC(=O)[C@H](CC1CCCCC1)NC(=O)[C@H](Cc1c[nH]cn1)NC(=O)[C@H](CCCNC(=N)N)NC(=O)[C@H]1CCCN1C(=O)[C@H](CO)NC(=O)N1CCOCC1)C(=O)N[C@@H](CCCNC(=N)N)C(=O)N[C@@H](CCC(N)=O)C(=O)N[C@@H](CCCNC(=N)N)C(=O)N[C@@H](CC1CCCCC1)C(N)=O, also called compound No. 187) [Morpholinocarbonyl-[D-Pro24, Cha27,36, Leu(Me)28, Lys30, Aib31]-PYY(23-36)]	0.84	0.66
Morpholinocarbonyl-D[dP]RH[Cha][Cha]NL[Aib]TRQR[Cha]-NH2 (SMILES CC(C)C[C@H](NC(=O)[C@H](CC(N)=O)NC(=O)[C@H](CC1CCCCC1)NC(=O)[C@H](CC1CCCCC1)NC(=O)[C@H](Cc1c[nH]cn1)NC(=O)[C@H](CCCNC(=N)N)NC(=O)[C@H]1CCCN1C(=O)[C@H](CC(=O)O)NC(=O)N1CCOCC1)C(=O)NC(C)(C)C(=O)N[C@H](C(=O)N[C@@H](CCCNC(=N)N)C(=O)N[C@@H](CCC(N)=O)C(=O)N[C@@H](CCCNC(=N)N)C(=O)N[C@@H](CC1CCCCC1)C(N)=O)[C@@H](C)O, also called compound No. 173) [Morpholinocarbonyl-[Asp23, D-Pro24, Cha27,28,36, Aib31]-PYY(23-36)]	1.4	2.9
Ac-[dY]AS[dP]RH[Cha][Cha]NL[Aib]TRQR[Cha]-NH2 (SMILES CC(=O)N[C@H](Cc1ccc(O)cc1)C(=O)N[C@@H](C)C(=O)N[C@@H](CO)C(=O)N1CCC[C@@H]1C(=O)N[C@@H](CCCNC(=N)N)C(=O)N[C@@H](Cc1c[nH]cn1)C(=O)N[C@@H](CC1CCCCC1)C(=O)N[C@@H](CC1CCCCC1)C(=O)N[C@@H](CC(N)=O)C(=O)N[C@@H](CC(C)C)C(=O)NC(C)(C)C(=O)N[C@H](C(=O)N[C@@H](CCCNC(=N)N)C(=O)N[C@@H](CCC(N)=O)C(=O)N[C@@H](CCCNC(=N)N)C(=O)N[C@@H](CC1CCCCC1)C(N)=O)[C@@H](C)O, also called compound No. 121) [Ac-[D-Tyr21, D-Pro24, Cha27,28,36, Aib31]-PYY(21-36)]	1.3	1.2

Continued, values first:

GBA EC50 Ratio (vs PYY(3-36)), [35S]GTPγS (human Y2 receptor [1]) [ratio]	IC50 Ratio (vs PYY(3-36)) (human Y2 receptor [2]) [ratio]	Binder
1.2	2.2	Ac-E[dP]R[4Pal][Cha]YNK[Aib]TRQR[Cha]-NH2 (SMILES CC(=O)N[C@@H](CCC(=O)O)C(=O)N1CCC[C@@H]1C(=O)N[C@@H](CCCNC(=N)N)C(=O)N[C@@H](Cc1ccncc1)C(=O)N[C@@H](CC1CCCCC1)C(=O)N[C@@H](Cc1ccc(O)cc1)C(=O)N[C@@H](CC(N)=O)C(=O)N[C@@H](CCCCN)C(=O)NC(C)(C)C(=O)N[C@H](C(=O)N[C@@H](CCCNC(=N)N)C(=O)N[C@@H](CCC(N)=O)C(=O)N[C@@H](CCCNC(=N)N)C(=O)N[C@@H](CC1CCCCC1)C(N)=O)[C@@H](C)O, also called compound No. 139) [Ac-[Glu23, D-Pro24, Pya(4)26, Cha27,36, Tyr28, Lys30, Aib31]-PYY(23-36)]
14	17	Ac-GLRH[Cha][Cha]NL[Aib]TRQR[Cha]-NH2 (also: Gly1-Leu2 amide bond replaced by (E)-CH=CH alkene, -CONH- bond between Gly23 and Leu24 is substituted by (E) type alkene; also called compound No. 122) [Ac-[Gly23-ψ[(E)-CH═CH]-Leu24, Cha27,28,36, Aib31]-PYY(23-36)]
18	39	[4Amb][Orn]AYINLITRQRY-NH2 (N-terminus assumed; SMILES CC[C@H](C)[C@H](NC(=O)[C@H](Cc1ccc(O)cc1)NC(=O)[C@H](C)NC(=O)[C@H](CCCN)NC(=O)c1ccc(CN)cc1)C(=O)N[C@@H](CC(N)=O)C(=O)N[C@@H](CC(C)C)C(=O)N[C@H](C(=O)N[C@H](C(=O)N[C@@H](CCCNC(=N)N)C(=O)N[C@@H](CCC(N)=O)C(=O)N[C@@H](CCCNC(=N)N)C(=O)N[C@@H](Cc1ccc(O)cc1)C(N)=O)[C@@H](C)O)[C@@H](C)CC, also called compound No. 10) [4-Aminomethylbenzoyl-[Orn25, Ala26, Ile28,31]-PYY(25-36)]
0.77	0.66	Amidino-E[dP]RH[Cha][Cha]NK[Aib]TRQR[Cha]-NH2 (SMILES C[C@@H](O)[C@H](NC(=O)C(C)(C)NC(=O)[C@H](CCCCN)NC(=O)[C@H](CC(N)=O)NC(=O)[C@H](CC1CCCCC1)NC(=O)[C@H](CC1CCCCC1)NC(=O)[C@H](Cc1c[nH]cn1)NC(=O)[C@H](CCCNC(=N)N)NC(=O)[C@H]1CCCN1C(=O)[C@H](CCC(=O)O)NC(=N)N)C(=O)N[C@@H](CCCNC(=N)N)C(=O)N[C@@H](CCC(N)=O)C(=O)N[C@@H](CCCNC(=N)N)C(=O)N[C@@H](CC1CCCCC1)C(N)=O, also called compound No. 190) [Amidino-[Glu23, D-Pro24, Cha27,28,36, Lys30, Aib31]-PYY(23-36)]
1.4	1.4	Morpholinocarbonyl-E[dP]RH[Cha][Cha]NK[Aib]TRQR[Cha]-NH2 (SMILES C[C@@H](O)[C@H](NC(=O)C(C)(C)NC(=O)[C@H](CCCCN)NC(=O)[C@H](CC(N)=O)NC(=O)[C@H](CC1CCCCC1)NC(=O)[C@H](CC1CCCCC1)NC(=O)[C@H](Cc1c[nH]cn1)NC(=O)[C@H](CCCNC(=N)N)NC(=O)[C@H]1CCCN1C(=O)[C@H](CCC(=O)O)NC(=O)N1CCOCC1)C(=O)N[C@@H](CCCNC(=N)N)C(=O)N[C@@H](CCC(N)=O)C(=O)N[C@@H](CCCNC(=N)N)C(=O)N[C@@H](CC1CCCCC1)C(N)=O, also called compound No. 191) [Morpholinocarbonyl-[Glu23, D-Pro24, Cha27,28,36, Lys30, Aib31]-PYY(23-36)]
